Tests used:
AncSZ = test: phosphorylation enrichment, bacterial display (enrichment ratio); higher = better substrate or ligand; peptides without Tyr show the background
EPHB1 = EPHB1 (UniProt P54762); test: as above
EPHB2 = EPHB2 (UniProt P29323); test: as above
FGFR1 = FGFR1 (UniProt P11362); test: as above
FGFR3 = FGFR3 (UniProt P22607); test: as above
Fer (mouse) = test: as above
Fes = Fes (UniProt P07332); test: as above
Fyn = Fyn (UniProt P06241); test: as above
Hck = Hck (UniProt P08631); test: as above
Jak2 = Jak2 (UniProt O60674); test: as above
MERTK = MERTK (UniProt Q12866); test: as above
c-Abl (mouse) = test: as above
c-Src = test: as above
Grb2 SH2 = Grb2 SH2 (UniProt P62993); test: SH2 binding enrichment of the phosphorylated peptide, bacterial display (enrichment ratio); higher = better substrate or ligand; peptides without Tyr show the background
SHP2-C SH2 = test: as above
c-Src SH2 = test: as above
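Throughout, for SH2 binding enrichment of the phosphorylated peptide, bacterial display: peptide library displayed on the E. coli surface as eCPX fusions, selected cells deep-sequenced, score is each peptide's frequency after selection divided by its frequency in the input.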
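Throughout, for phosphorylation enrichment, bacterial display: 11-residue human phosphosite peptides and single-mutation variants displayed on the E. coli surface, counted by deep sequencing, each peptide's frequency after selection divided by its frequency in the unselected input library; frequency after pTyr selection over input frequency; kinase dosed for 20-30% of maximal phosphorylation in three min.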

FGFR1, sequence (P11362 whole entry, looked up): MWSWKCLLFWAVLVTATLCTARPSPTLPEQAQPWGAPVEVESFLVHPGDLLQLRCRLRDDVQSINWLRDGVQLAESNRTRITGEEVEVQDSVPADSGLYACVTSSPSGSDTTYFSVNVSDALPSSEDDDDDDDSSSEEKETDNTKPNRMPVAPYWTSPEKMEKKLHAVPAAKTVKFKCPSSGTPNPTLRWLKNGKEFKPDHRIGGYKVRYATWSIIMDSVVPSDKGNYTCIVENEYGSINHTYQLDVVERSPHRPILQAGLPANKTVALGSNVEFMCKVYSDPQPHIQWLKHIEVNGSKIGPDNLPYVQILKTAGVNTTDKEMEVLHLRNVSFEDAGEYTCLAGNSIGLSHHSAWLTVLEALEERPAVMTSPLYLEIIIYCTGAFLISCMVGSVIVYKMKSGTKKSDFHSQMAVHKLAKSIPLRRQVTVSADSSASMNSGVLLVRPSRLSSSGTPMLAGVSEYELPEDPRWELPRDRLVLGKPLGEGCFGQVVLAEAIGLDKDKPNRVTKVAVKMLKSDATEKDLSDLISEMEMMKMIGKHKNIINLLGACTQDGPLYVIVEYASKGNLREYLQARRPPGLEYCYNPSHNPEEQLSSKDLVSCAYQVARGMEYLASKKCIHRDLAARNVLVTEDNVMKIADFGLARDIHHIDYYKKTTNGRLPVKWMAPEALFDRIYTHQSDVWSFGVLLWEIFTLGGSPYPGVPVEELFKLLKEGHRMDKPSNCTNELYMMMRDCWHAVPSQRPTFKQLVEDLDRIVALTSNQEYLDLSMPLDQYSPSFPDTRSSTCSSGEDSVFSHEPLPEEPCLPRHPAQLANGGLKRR
MERTK, sequence (Q12866 whole entry, looked up): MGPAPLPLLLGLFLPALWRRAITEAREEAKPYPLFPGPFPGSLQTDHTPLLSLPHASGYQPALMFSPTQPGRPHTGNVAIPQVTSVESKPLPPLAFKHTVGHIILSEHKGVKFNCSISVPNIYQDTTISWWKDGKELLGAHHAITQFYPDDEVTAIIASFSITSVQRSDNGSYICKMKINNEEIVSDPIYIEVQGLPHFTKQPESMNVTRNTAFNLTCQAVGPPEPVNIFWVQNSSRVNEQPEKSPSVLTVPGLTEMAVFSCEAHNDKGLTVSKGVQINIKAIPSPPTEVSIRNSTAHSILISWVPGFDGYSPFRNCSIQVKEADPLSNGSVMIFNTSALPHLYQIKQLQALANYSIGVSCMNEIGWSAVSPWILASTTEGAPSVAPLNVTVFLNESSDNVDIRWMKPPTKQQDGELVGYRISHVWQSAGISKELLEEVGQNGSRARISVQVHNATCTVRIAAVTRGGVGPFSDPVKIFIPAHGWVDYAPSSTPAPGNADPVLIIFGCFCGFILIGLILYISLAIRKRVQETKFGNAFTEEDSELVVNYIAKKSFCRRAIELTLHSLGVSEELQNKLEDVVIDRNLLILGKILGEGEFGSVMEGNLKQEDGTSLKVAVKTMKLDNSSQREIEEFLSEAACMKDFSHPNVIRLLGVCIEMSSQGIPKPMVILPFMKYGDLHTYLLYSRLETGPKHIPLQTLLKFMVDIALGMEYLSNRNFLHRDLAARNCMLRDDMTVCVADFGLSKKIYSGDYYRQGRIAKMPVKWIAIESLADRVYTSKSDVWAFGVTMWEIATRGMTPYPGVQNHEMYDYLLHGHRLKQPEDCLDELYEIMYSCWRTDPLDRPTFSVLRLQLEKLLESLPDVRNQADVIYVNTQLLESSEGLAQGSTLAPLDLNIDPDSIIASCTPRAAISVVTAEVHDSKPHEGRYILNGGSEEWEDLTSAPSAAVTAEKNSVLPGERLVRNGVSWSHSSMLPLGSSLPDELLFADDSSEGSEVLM
Fyn, sequence (P06241 whole entry, looked up): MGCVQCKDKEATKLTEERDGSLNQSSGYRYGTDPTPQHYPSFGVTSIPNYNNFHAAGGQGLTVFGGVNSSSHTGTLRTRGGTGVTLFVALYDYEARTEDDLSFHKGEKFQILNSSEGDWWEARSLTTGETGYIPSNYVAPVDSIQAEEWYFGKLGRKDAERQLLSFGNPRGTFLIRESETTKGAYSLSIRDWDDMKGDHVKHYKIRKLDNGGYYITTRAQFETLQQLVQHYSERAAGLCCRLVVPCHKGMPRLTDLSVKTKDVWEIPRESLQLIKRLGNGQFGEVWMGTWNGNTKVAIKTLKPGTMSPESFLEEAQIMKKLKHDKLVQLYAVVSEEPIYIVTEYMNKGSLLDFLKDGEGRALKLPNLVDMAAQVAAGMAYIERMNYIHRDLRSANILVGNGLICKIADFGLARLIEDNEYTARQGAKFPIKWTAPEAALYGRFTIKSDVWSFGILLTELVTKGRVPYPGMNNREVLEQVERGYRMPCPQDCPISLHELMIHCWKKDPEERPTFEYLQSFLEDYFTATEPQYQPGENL
Hck, sequence (P08631 whole entry, looked up): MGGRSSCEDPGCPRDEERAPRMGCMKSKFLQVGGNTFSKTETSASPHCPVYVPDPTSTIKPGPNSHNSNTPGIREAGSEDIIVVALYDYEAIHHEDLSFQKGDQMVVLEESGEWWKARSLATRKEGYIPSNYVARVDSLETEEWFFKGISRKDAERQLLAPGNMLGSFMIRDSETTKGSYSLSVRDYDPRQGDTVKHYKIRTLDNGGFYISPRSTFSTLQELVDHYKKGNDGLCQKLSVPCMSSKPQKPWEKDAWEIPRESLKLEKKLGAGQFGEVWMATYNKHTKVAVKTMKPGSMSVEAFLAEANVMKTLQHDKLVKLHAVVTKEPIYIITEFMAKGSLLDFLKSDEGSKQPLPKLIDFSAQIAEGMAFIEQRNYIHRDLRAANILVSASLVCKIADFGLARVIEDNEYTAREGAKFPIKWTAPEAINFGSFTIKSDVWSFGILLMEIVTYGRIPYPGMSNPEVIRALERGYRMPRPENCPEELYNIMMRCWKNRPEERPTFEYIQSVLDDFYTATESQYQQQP
FGFR3, sequence (P22607 whole entry, looked up): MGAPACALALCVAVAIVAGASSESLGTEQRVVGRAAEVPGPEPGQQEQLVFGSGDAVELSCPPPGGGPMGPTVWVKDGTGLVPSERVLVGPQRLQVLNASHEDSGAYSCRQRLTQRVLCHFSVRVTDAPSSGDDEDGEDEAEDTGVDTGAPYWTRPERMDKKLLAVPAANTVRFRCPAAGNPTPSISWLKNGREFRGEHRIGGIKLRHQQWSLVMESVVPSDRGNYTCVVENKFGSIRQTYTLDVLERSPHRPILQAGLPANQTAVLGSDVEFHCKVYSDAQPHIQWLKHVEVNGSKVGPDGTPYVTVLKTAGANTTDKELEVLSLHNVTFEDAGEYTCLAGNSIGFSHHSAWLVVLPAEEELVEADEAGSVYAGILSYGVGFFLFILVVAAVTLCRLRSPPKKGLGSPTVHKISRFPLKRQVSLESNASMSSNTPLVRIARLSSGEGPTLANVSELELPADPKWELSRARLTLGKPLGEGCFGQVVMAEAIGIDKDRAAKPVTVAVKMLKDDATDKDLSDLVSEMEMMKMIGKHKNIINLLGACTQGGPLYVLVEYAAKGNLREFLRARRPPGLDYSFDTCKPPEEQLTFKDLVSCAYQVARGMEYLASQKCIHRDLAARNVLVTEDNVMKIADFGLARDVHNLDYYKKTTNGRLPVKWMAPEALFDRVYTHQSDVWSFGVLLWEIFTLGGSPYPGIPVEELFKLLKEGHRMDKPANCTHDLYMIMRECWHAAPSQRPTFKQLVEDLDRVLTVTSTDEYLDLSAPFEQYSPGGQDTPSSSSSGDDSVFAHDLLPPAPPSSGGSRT
Fes, sequence (P07332 whole entry, looked up): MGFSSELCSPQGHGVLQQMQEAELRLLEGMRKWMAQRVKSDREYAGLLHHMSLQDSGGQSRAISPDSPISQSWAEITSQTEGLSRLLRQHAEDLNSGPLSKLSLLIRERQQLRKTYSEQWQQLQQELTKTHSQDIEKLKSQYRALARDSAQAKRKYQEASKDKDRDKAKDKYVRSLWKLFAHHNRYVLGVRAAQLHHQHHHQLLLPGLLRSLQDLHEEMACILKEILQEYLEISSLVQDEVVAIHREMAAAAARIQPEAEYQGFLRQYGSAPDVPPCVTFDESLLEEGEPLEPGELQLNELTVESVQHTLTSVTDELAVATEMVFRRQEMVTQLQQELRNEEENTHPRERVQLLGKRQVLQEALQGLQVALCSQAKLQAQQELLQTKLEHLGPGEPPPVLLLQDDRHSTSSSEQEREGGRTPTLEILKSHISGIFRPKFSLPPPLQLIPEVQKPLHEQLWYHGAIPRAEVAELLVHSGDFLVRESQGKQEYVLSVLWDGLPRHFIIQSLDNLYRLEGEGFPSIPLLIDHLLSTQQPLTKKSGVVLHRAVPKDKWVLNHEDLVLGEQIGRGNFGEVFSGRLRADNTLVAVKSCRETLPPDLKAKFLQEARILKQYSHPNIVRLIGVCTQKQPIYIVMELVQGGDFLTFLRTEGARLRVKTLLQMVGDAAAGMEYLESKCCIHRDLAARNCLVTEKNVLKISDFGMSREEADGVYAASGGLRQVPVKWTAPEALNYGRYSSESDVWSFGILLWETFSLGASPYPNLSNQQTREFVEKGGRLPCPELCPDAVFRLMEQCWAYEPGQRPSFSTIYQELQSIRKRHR

Row | Sequence | SH2 binding enrichment (Grb2 SH2) | SH2 binding enrichment (SHP2-C SH2) | SH2 binding enrichment (c-Src SH2) | phosphorylation enrichment (AncSZ) | phosphorylation enrichment (EPHB1) | phosphorylation enrichment (EPHB2) | phosphorylation enrichment (FGFR1) | phosphorylation enrichment (FGFR3) | phosphorylation enrichment (Fer (mouse)) | phosphorylation enrichment (Fes) | phosphorylation enrichment (Fyn) | phosphorylation enrichment (Hck) | phosphorylation enrichment (Jak2) | phosphorylation enrichment (MERTK) | phosphorylation enrichment (c-Abl (mouse)) | phosphorylation enrichment (c-Src)
1 | FETVKYINNER [ABCB7_Y345_F346I_YF] | 1.23 | 0.713 | 0.441 | 0.903 | 0.46 | 0.403 | 0.525 | 0.64 | 0.424 | 0.954 | 0.452 | 0.472 | 0.712 | 0.418 | 0.617 | 0.431
2 | FIATQYSLCPR [LBR_Y166_R169C_YF] | 1.02 | 0.851 | 0.687 | 1.03 | 0.618 | 0.666 | 0.475 | 0.762 | 0.631 | 1.07 | 0.486 | 0.749 | 1.14 | 0.752 | 0.777 | 0.683
3 | FIGRIYLYLTK [GARS1_Y414] | 1.05 | 1.25 | 0.74 | 1.64 | 0.556 | 0.39 | 0.487 | 0.627 | 0.535 | 1.12 | 0.445 | 0.416 | 1.14 | 0.538 | 1.18 | 0.469
4 | FIRRDYEACKA [BBS4_Y48_K46R_YF] | 0.918 | 1.01 | 0.682 | 0.761 | 0.514 | 0.59 | 0.45 | 0.494 | 0.434 | 0.758 | 0.525 | 0.442 | 0.573 | 0.4 | 0.549 | 0.616
5 | FISVGYVDDTQ [HLA-B_Y51] | 1 | 0.747 | 0.599 | 0.808 | 0.507 | 0.593 | 0.556 | 0.743 | 0.471 | 1.05 | 0.47 | 0.444 | 0.801 | 0.432 | 0.752 | 0.405
6 | FLAVGYHQPHI [IDS_Y225_K227Q] | 0.879 | 1.25 | 1.55 | 0.559 | 0.448 | 0.415 | 0.391 | 0.514 | 0.35 | 0.593 | 0.418 | 0.405 | 0.447 | 0.298 | 0.57 | 0.297
7 | FMFKVYSDPQP [FGFR1_Y280_C277Y_YF] | 0.693 | 0.566 | 0.49 | 1.54 | 1.08 | 0.845 | 0.572 | 1.08 | 0.679 | 1.68 | 0.596 | 0.667 | 1.49 | 0.438 | 1.16 | 0.398
8 | FPCSVYMPDEW [INSR_Y1011_V1012M] | 1 | 0.956 | 0.989 | 1.19 | 0.6 | 0.644 | 0.658 | 0.712 | 0.512 | 1.06 | 0.875 | 0.596 | 1.1 | 0.559 | 0.687 | 3.15
9 | FPKARYHWLVL [APTX_Y214_YF] | 1.5 | 1.94 | 1.42 | 1.03 | 0.588 | 0.457 | 0.645 | 0.777 | 0.675 | 0.945 | 0.491 | 0.53 | 0.772 | 0.731 | 0.647 | 0.39
10 | FPQARYHWLVL [APTX_Y214_K211Q_YF] | 1.25 | 1.47 | 1.13 | 0.913 | 0.568 | 0.597 | 1.92 | 1.48 | 0.539 | 1.22 | 0.459 | 0.543 | 1.28 | 1.24 | 0.858 | 0.522
11 | FRASFYRRGDR [LTK_Y677_YF] | 0.542 | 0.471 | 0.379 | 0.756 | 0.543 | 0.552 | 0.549 | 0.526 | 0.456 | 0.631 | 0.617 | 0.463 | 0.583 | 0.722 | 0.634 | 0.709
12 | FSEVRYVKEPY [HIPK4_Y170] | 0.908 | 0.52 | 0.624 | 0.9 | 0.474 | 0.449 | 0.668 | 0.538 | 0.404 | 1.06 | 0.372 | 0.388 | 1.06 | 0.371 | 0.783 | 0.392
13 | FSGLAYTMERS [GLUD1_Y512_H507Y_YF] | 0.856 | 0.838 | 0.5 | 0.822 | 0.492 | 0.465 | 0.455 | 0.63 | 0.361 | 0.858 | 0.544 | 0.486 | 0.7 | 0.364 | 0.613 | 0.935
14 | FSVDSYDSSVR [KCNQ1_Y461_G460S] | 1.02 | 0.865 | 0.718 | 0.734 | 0.451 | 0.87 | 0.44 | 0.548 | 0.498 | 1.39 | 0.474 | 0.47 | 0.693 | 0.406 | 0.523 | 0.474
15 | FTGNTYRVGDT [FN1_Y106_YF] | 0.893 | 0.853 | 0.479 | 0.634 | 0.382 | 0.464 | 0.372 | 0.472 | 0.396 | 0.667 | 0.424 | 0.293 | 0.499 | 0.394 | 0.479 | 0.476
16 | FTGVEYSSCDT [EPHA3_Y937] | 0.832 | 1.14 | 1.92 | 1.12 | 0.629 | 0.637 | 0.478 | 0.721 | 0.491 | 1.12 | 0.524 | 0.545 | 0.905 | 0.419 | 0.755 | 0.555
17 | FTRNYYVWAVL [CYBA_Y88_R90W] | 1.04 | 1.11 | 0.581 | 1.6 | 3.79 | 1.55 | 6.92 | 5.58 | 1.42 | 1.7 | 0.858 | 0.75 | 1.84 | 3.54 | 12 | 0.506
18 | FYDANYDGKEY [MAPRE2_Y162] | 0.823 | 0.473 | 0.725 | 1.22 | 0.63 | 1.23 | 0.699 | 0.796 | 0.627 | 1.37 | 0.642 | 0.83 | 1.14 | 1.17 | 0.712 | 0.941
19 | GDDLSYGDVPP [IRS1_Y151_E147D] | 0.752 | 0.549 | 0.573 | 1.11 | 0.543 | 0.588 | 0.479 | 0.576 | 0.61 | 1.24 | 0.426 | 0.535 | 1.04 | 0.413 | 0.751 | 0.63
20 | GDFLSYREFHS [ERBIN_Y1107_YF] | 0.741 | 0.639 | 0.49 | 0.625 | 0.386 | 0.469 | 0.432 | 0.567 | 0.489 | 0.686 | 0.348 | 0.385 | 0.557 | 0.359 | 0.534 | 0.423

Further lines, with some results ahead:

Row | SH2 binding enrichment (Grb2 SH2) | SH2 binding enrichment (SHP2-C SH2) | SH2 binding enrichment (c-Src SH2) | Sequence | phosphorylation enrichment (AncSZ) | phosphorylation enrichment (EPHB1) | phosphorylation enrichment (EPHB2) | phosphorylation enrichment (FGFR1) | phosphorylation enrichment (FGFR3) | phosphorylation enrichment (Fer (mouse)) | phosphorylation enrichment (Fes) | phosphorylation enrichment (Fyn) | phosphorylation enrichment (Hck) | phosphorylation enrichment (Jak2) | phosphorylation enrichment (MERTK) | phosphorylation enrichment (c-Abl (mouse)) | phosphorylation enrichment (c-Src)
21 | 0.767 | 0.592 | 0.705 | FEPWVYSFSYE [PRKDC_Y647] | 1.43 | 0.759 | 0.654 | 0.655 | 1.03 | 1.35 | 1.36 | 6.53 | 2.94 | 1.3 | 1.22 | 0.861 | 5.83
22 | 1.15 | 0.566 | 0.422 | FFRRHYPLTTL [TNS4_Y644] | 0.995 | 0.408 | 0.497 | 0.426 | 0.467 | 0.455 | 0.917 | 0.426 | 0.399 | 0.876 | 0.491 | 0.587 | 0.516
23 | 1.37 | 0.703 | 0.83 | FGFPGYQCKHF [TIMP3_Y177_S179C_YF] | 0.695 | 0.337 | 0.514 | 0.517 | 0.535 | 0.473 | 0.789 | 0.445 | 0.506 | 0.831 | 0.542 | 0.716 | 0.548
24 | 1.13 | 1.59 | 1.14 | FGLDHYQCDCT [PTGS1_Y54_R53H] | 0.956 | 0.401 | 0.5 | 0.453 | 0.68 | 0.464 | 0.986 | 0.379 | 0.424 | 0.812 | 0.489 | 0.61 | 0.464
25 | 1.12 | 0.893 | 0.661 | FGLTLYPNSRE [MEP1A_Y472_V469L] | 0.911 | 0.55 | 0.56 | 0.682 | 0.698 | 0.413 | 1.09 | 0.471 | 0.397 | 0.68 | 0.385 | 0.629 | 0.394
26 | 0.705 | 0.423 | 0.431 | FNDSAYNQQLI [ZPLD1_Y198_T197A_YF] | 0.641 | 0.489 | 0.383 | 0.338 | 0.451 | 0.326 | 0.672 | 0.393 | 0.455 | 0.5 | 0.297 | 0.485 | 0.421
27 | 0.822 | 0.745 | 0.466 | FRVAGYETQGG [TIA1_Y383_YF] | 0.68 | 0.428 | 0.41 | 0.449 | 0.553 | 0.43 | 0.897 | 0.409 | 0.46 | 0.722 | 0.437 | 0.64 | 0.463
28 | 0.783 | 0.612 | 1.18 | FSAGTYPRLEE [SYCN_Y108] | 0.765 | 0.493 | 0.464 | 0.464 | 0.659 | 0.464 | 0.918 | 0.41 | 0.406 | 0.828 | 0.372 | 0.672 | 0.392
29 | 1.36 | 1.38 | 1.62 | FSCLPCGRLAF [SLC52A2_Y305_Y305C_YF] | 0.752 | 0.442 | 0.404 | 0.657 | 0.542 | 0.423 | 0.868 | 0.354 | 0.389 | 0.67 | 0.532 | 0.55 | 0.33
30 | 0.793 | 0.538 | 0.777 | FSCLPYGRLAF [SLC52A2_Y305_YF] | 0.935 | 0.352 | 0.55 | 0.71 | 0.649 | 0.559 | 1.01 | 0.629 | 0.936 | 1.03 | 0.56 | 0.882 | 2.36
31 | 0.804 | 0.465 | 0.455 | FSCLPYGRLAY [SLC52A2_Y305] | 1.01 | 0.559 | 0.513 | 0.463 | 0.641 | 0.619 | 0.98 | 0.618 | 0.894 | 0.782 | 0.393 | 0.595 | 1.84
32 | 0.773 | 0.555 | 0.462 | FSKRIYKGMVA [PCDH15_Y931] | 0.426 | 0.231 | 0.5 | 0.262 | 0.367 | 0.369 | 0.534 | 0.392 | 0.352 | 0.402 | 0.362 | 0.332 | 0.338
33 | 0.761 | 0.565 | 0.545 | FYVVRYCWLRR [MPZ_Y181] | 0.869 | 0.496 | 0.508 | 0.595 | 0.614 | 0.51 | 0.747 | 0.62 | 0.567 | 0.596 | 0.604 | 0.758 | 0.612
